What was measured:
[1] = Specific activity of the Prolia conjugate: biological activity by methods known in the art and total protein (Bradford)
Protocol: The free Prolia is removed by means of cation exchange chromatography (CEC). The reaction mixture is diluted with 20 ml Buffer A (50 mM Hepes, pH 6.5) and loaded onto a 20 ml HiPrep SPFF 16/10 column (GE Healthcare, Fairfield, CT) pre-equilibrated with Buffer A. Then the column is eluted with Buffer B (50 mM Hepes, 1 M NaCl, pH 6.5). Free Prolia is eluted by washing the column with 25 % Buffer B and the conjugate at 50 % Buffer B. The conductivity of the conjugate containing fractions is subsequently raised to -190 mS/cm with Buffer C (50 mM Hepes, 5 M NaCl, pH 6.9) and loaded onto a 20 ml HiPrep Butyl FF 16/10 column (GE Healthcare, Fairfield, CT) pre-equilibrated with Buffer D (50 mM Hepes, 3 M NaCl, pH 6.9). Free PSA-reagent is washed out within 5 CV Buffer D. Subsequently, the conjugate is eluted with 100 % Buffer E (50 mM Hepes, pH 6.9). The conjugate containing fractions are concentrated by UF/DF using a 10 kD membrane made of regenerated cellulose (88 cm2, cut-off 10 kD, Millipore). The final diafiltration step is performed against histidine buffer, pH 6.9 containing 150 mM NaCl. The preparation is analytically characterized by measuring total protein (Bradford) and biological activity according to methods known in the art. For the PSA-Prolia conjugate a specific activity of > 50 % in comparison to native Prolia is determined. The conjugate is additionally analytically characterized by Size Exclusion HPLC using a Agilent 1200 HPLC system equipped with a Shodex KW 803 column under conditions as previously described (Kolarich et al, Transfusion 2006;46:1959-77). It is shown that the preparation contains no free Prolia.
The free Prolia is removed by means of cation exchange chromatography (CEC). The reaction mixture is diluted with 20 ml Buffer A (50 mM Hepes, pH 6.5) and loaded onto a 20 ml HiPrep SPFF 16/10 column (GE Healthcare, Fairfield, CT) pre-equilibrated with Buffer A. Then the column is eluted with Buffer B (50 mM Hepes, 1 M NaCl, pH 6.5). Free Prolia is eluted by washing the column with 25 % Buffer B and the conjugate at 5 0% Buffer B. The conductivity of the conjugate containing fractions is subsequently raised to -190 mS/cm with Buffer C (50 mM Hepes, 5 M NaCl, pH 6.9) and loaded onto a 20 ml HiPrep Butyl FF 16/10 column (GE Healthcare, Fairfield, CT) pre-equilibrated with Buffer D (50 mM Hepes, 3 M NaCl, pH 6.9). Free PSA-reagent is washed out within 5 CV Buffer D. Subsequently the conjugate is eluted with 100% Buffer E (50 mM Hepes, pH 6.9). The conjugate containing fractions are concentrated by UF/DF using a 10 kD membrane made of regenerated cellulose (88 cm^2, cut-off 10 kD / Millipore). […] For the PSA-Prolia conjugate a specific activity of > 50 % in comparison to native Prolia is determined. […]

[2] = in vitro studies; Bombhard and Herbold 2005; cited from earlier work
rats = details: long-term dietary treatment of rats; Goodman et al. 1984; cited from earlier work
[3] = Harrison and Jollow 1987; cited from earlier work

Molecule: PEG-Prolia conjugate: Prolia PEGylated with a linear 20 kD aminooxy PEGylation reagent, m-toluidine as catalyst
- specific activity in comparison to native Prolia ([1]; Reference Example 44 Method 1, alternative (oxidation, then m-toluidine and 20 kD aminooxy-PEG, 5-fold)): > 50%
- specific activity in comparison to native Prolia ([1]; Reference Example 44 Method 3, alternative (simultaneous, 20 kD aminooxy-PEG, 5-fold)): > 50%

Molecule: PSA-Prolia conjugate: Prolia polysialylated with 20 kD aminooxy-PSA reagent, m-toluidine as catalyst
- specific activity in comparison to native Prolia ([1]; Reference Example 30 Method 1, alternative (oxidation, then m-toluidine and 20 kD aminooxy-PSA, 5-fold)): > 50%
- specific activity in comparison to native Prolia ([1]; Reference Example 30 Method 3, alternative (simultaneous, 20 kD aminooxy-PSA, 5 fold)): > 50%

Molecule: Nc1ccccc1 [aniline]
- chromosome mutations / genotoxic activity [2]: potential to induce chromosome mutations
- tumors in the spleen (rats): induce tumors in the spleen
- methemoglobinemia [3]: induce methemoglobinemia

— patent EP3505186B1, “NUCLEOPHILIC CATALYSTS FOR OXIME LINKAGE” (Takeda Pharmaceutical Company Limited, priority 2010, dated 2012)
